Results published in the supplement of paper PMC10567573.

B1: TRIM55 (parent)
chain: YKSFSKEQQTMDNLEKQLICPICL
B2: TRIM55 (parent)
chain: ICPICLEMFTKPVVILPCQHNLCR

Variants of: B1
Assay: protein stability index of a GFP-peptide fusion (GPS, HEK-293T) (PSI 1-6); higher = more stable
Conditions: c terminus: a fixed tail appended
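Also: lentivirally expressed fusions sorted by FACS into six bins by GFP to DsRed ratio, PSI derived from sequencing read proportions per bin multiplied by bin number.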

Protein stability index of substitutions, site by site:
I22: S 2.75 | P 2.7 | D 2.78 | Y 2.55 | R 3.81 | M 2.31 | H 2.15 | G 2.9 | K 2.9 | N 3.48 | L 2.18 | V 1.96 | C 2.66 | F 2.21 | T 2.55 | Q 2.03 | E 2.93 | A 2.23
C23: M 1.66 | D 3.64 | S 2.6 | G 2.67 | V 1.7 | K 3.13 | Y 2.04 | Q 3.13 | F 2.04 | W 1.65 | I 1.93 | L 1.72 | R 2.37 | T 2 | H 2.19 | E 2.85 | A 2.29 | N 3.15 | P 1.86
L24: Q 2.22 | R 2.31 | K 2.63 | T 1.98 | G 2.46 | S 2.13 | W 2.37 | M 2.33 | P 3.03 | N 2.46 | F 2.15 | A 1.92 | Y 2.88 | E 2.13 | C 2.07 | D 2 | H 2.5 | I 2.7
P21: R 1.35 | W 2.53 | Q 2.4 | Y 3.21 | T 1.77 | S 3.16 | V 2.08

Variants of: B2
Assay: as above
Conditions: c terminus: a fixed tail appended

Protein stability index: each site, then its substitutions
L6: R 2.22 | Y 2.34 | C 2.39 | F 2.48 | H 2.38 | D 2.79 | S 2.52 | G 2.25 | M 2.45 | N 2.94 | T 2.51 | E 3.49 | P 2.69
N21: P 2.52 | G 2.71 | Q 2.17 | Y 2.48 | K 1.74 | C 2.2 | F 2.53 | R 2.31 | E 2.54 | D 2.23
C23: M 2.43 | E 2.65 | V 2.46 | W 2.05 | H 2.92 | N 2.13 | K 2.03 | S 1.93 | I 1.82 | P 2.24 | F 1.73 | A 1.72 | T 2.64
C18: W 1.95 | F 1.89 | A 1.75 | N 1.81 | D 2.53 | Y 1.79 | G 2.26 | L 1.77 | T 1.98 | R 1.45 | I 2.02 | H 2.27 | Q 2.19
C2: P 1.93 | K 2.15 | T 1.6 | F 2.02 | M 1.67 | S 2.55 | R 2.03 | L 2.04
M8: E 2.59 | I 2.63 | T 2.73 | N 1.9 | G 2.11 | F 2.55 | D 3.58 | V 2.17 | S 2.59 | Y 2.82
Q19: N 2.34 | L 1.84 | M 2.15 | A 2.05 | F 2.05 | K 2.01 | W 1.61 | R 2.25 | T 1.98 | C 1.98
C5: V 2.14 | M 2.09 | E 2.28 | P 2.07 | K 3.33 | H 1.15 | W 1.6 | A 1.93 | F 1.57 | T 1.73
H20: T 1.54 | R 1.45 | F 2.77 | C 2.23 | G 2.08 | D 2.14 | W 1.27 | L 1.91 | Q 2.2
I15: W 1.85 | R 2.18 | C 2.71 | F 2.32 | H 2.38 | P 2.69 | A 2.84 | S 2.74 | N 2.5 | E 3.32 | G 2.53 | L 2.6 | M 2 | Y 2.02
V14: Q 2.59 | T 2.63 | K 2.33 | H 2.82 | W 1.89 | Y 2.15 | C 2.32 | D 3.31 | P 2.56 | G 2.54 | E 3.02 | R 2.47 | N 2.93 | F 2.49 | L 2.29
I4: R 2.87 | N 2.25 | F 2.67 | L 1.78 | S 2.72 | C 1.83 | Q 3.02 | Y 2.69 | E 2.33 | H 2.26 | A 2.07
E7: I 1.94 | Q 2.42 | V 1.42 | L 2.47 | W 1.89 | F 2.24 | P 2.13 | C 1.92 | N 1.53 | A 2.3 | G 2.52 | M 2.09 | S 2.19
P12: G 2.25 | V 2.29 | Q 2.43 | M 2.25 | D 2.61 | F 1.55 | H 2.04 | A 2.19 | K 2.5
P3: F 1.6 | I 3.07 | A 1.27 | C 1.63 | K 1.66 | H 2.35 | G 1.26 | T 2.45
F9: P 2.85 | I 2.77 | H 2.82 | E 3.15 | Q 2.49 | K 3.63 | M 2.51 | T 3.07 | W 2.47 | L 2.47 | S 2.75
T10: L 2.59 | N 2.73 | F 1.74 | P 2.46 | K 2.34 | Q 3.09 | M 2.3 | C 2.08 | S 2.74 | I 1.83 | R 2.38 | V 1.56 | W 2.27 | G 2.25
K11: L 1.9 | T 2.26 | W 1.93 | S 2.67 | M 1.94 | D 3.28 | P 2.35 | I 2.29 | H 2.4 | A 3.04 | C 2.51 | E 2.83
I1: R 2.75 | C 2.36 | A 2.56 | W 2.59 | K 2.75 | Q 3.01 | N 2.55
L16: D 2.61 | E 2.35 | F 2.12 | W 2.38 | S 2.4 | K 2.58 | I 2.05 | H 2.86 | V 2.68 | M 2.38 | T 2.77 | A 2.56 | G 3.03 | C 2.4
L22: V 2.55 | N 2.54 | K 2.38 | D 2.64 | I 2.31 | A 2.36 | H 2.48 | W 2.44 | C 2.04 | S 2.4 | M 3.14 | P 2.29 | Q 2.72 | R 2.51
P17: T 2.32 | D 2.27 | K 1.93 | E 2.62 | V 2.33 | C 1.8 | L 2.44 | Y 1.99 | M 1.7 | F 2.53 | H 2.35 | W 2.31
R24: Y 2.13 | S 1.85 | N 2.95 | H 2.4 | Q 2.57 | E 2.11 | A 1.92 | F 2.01 | T 2.71 | P 2.32 | V 1.83 | M 2.15 | I 2.24
V13: F 2.31 | G 2.84 | A 2.37 | Q 3.49 | N 2.92 | K 2.15 | P 2.23 | L 2.26 | H 2.63
